Laboratory results reported in patent US20240294623A1 (SCHOLAR ROCK, published 2024).

Columns and labels:
[1] = biological target: T1, hLTBP3-proTGFβ1 (human, UniProt Q9NS15 44-1303; P01137 30-390, limits assumed); assay: BLI (Octet), Fab in solution, biotinylated antigen immobilised
T1 construct: LLC as m1; Same id used for the cell-made complex in reporter assays; also called human LTBP3-proTGFβ1 complex; LTBP3-ProTGFb1
Experimental: (§1) The table below exemplifies binding kinetics of the listed antibodies (e.g., Fabs) obtained by OCTET®-based binding assays. The experiments were conducted with immobilized, biotinylated antigen and Fab fragments (e.g., test antibodies) in solution.

[2] = biological target: T2, hGARP-proTGFβ1 (human, UniProt Q14392 18-627; P01137 30-390, limits assumed); assay: as above
T2 construct: LLC as m1; Same id used for the cell-surface complex in reporter assays; also called human GARP-proTGFβ1 complex; GARP-ProTGFb1
Experimental: as §1

[3] = biological target: T3, hLTBP1-proTGFβ1 (human, UniProt Q14766 347-1721; P01137 30-390, limits assumed); assay: as above
T3 construct: Large latent complex (LLC): proTGFβ1 dimer disulfide-linked to one presenting molecule; recombinant, purified, biotinylated in BLI/SPR; The same id is used for the complex made by transfected cells in the reporter assays; also called human LTBP1-proTGFβ1 complex; LTBP1-ProTGFb1
Experimental: as §1

[4] = biological target: T1, hLTBP3-proTGFβ1; assay: SPR (Biacore), Fab; affinity relative to Ref
Experimental: (§2) Surface plasmon resonance (SPR) was used to measure binding kinetics using a BIACORE® system. […] Experiments were carried out with eight types of LLCs, namely, hLTBP1-proTGFβ1, mLTBP1-proTGFβ1, hLTBP3-proTGFβ1, mLTBP3-proTGFβ1, hGARP-proTGFβ1, mGARP-proTGFβ1, hLRRC33-proTGFβ1 and mLRRC33-proTGFβ1.
(§3) In vitro binding kinetics (on/off rates) were measured in Biacore-based assays and affinities were determined against all four known LLCs using both human and murine counterparts for each. Based on the association rate and dissociation rate, KD was calculated for each. In addition, relative affinities, as compared to the reference antibody as a benchmark, were calculated and expressed as “fold difference” relative to the reference antibody.
(§4) A BIACORE® system was employed to determine the monovalent binding affinity and the kinetic parameters for antigen binding of test antibodies. The binding kinetics were evaluated by surface plasmon resonance using Biacore 8K (GE Healthcare). A Biotin CAP sensor chip was used to capture the biotinylated antigens. […] Multi-cycle kinetics was employed where each analyte concentration was injected in a separate cycle and the sensor chip surface was regenerated after each cycle. All the assays were carried out in freshly prepared 1×HBS-EP+buffer (10 mM HEPES, 150 mM NaCl, 3 mM EDTA, 0.05% Tween20, pH 7.4). Data for all the analyte concentrations for each interaction were fit globally to a 1:1 binding model to obtain the kinetic parameters. The Sensorgram for 0 nM analyte concentration was used as reference.

[5] = biological target: T4, mLTBP3-proTGFβ1 (mouse); assay: SPR (Biacore), Fab; affinity relative to Ref
T4 construct: Murine LLC; also called murine LTBP3-proTGFβ1 complex
Experimental: as §2, §3, §4

[6] = biological target: T2, hGARP-proTGFβ1; assay: SPR (Biacore), Fab; affinity relative to Ref
Experimental: as §2, §3, §4

[7] = biological target: T5, mLTBP1-proTGFβ1 (mouse); assay: SPR (Biacore), Fab; affinity relative to Ref
T5 construct: Murine LLC; also called murine LTBP1-proTGFβ1 complex
Experimental: as §2, §3, §4

[8] = biological target: T3, hLTBP1-proTGFβ1; assay: SPR (Biacore), Fab; affinity relative to Ref
Experimental: as §2, §3, §4

[9] = biological target: mLRRC33-proTGFβ1 (murine, UniProt Q8BMT4 20-651); assay: SPR (Biacore), Fab; affinity relative to Ref

T1 sequence (Q9NS15 44-1303 limits assumed, chain 1 of 2): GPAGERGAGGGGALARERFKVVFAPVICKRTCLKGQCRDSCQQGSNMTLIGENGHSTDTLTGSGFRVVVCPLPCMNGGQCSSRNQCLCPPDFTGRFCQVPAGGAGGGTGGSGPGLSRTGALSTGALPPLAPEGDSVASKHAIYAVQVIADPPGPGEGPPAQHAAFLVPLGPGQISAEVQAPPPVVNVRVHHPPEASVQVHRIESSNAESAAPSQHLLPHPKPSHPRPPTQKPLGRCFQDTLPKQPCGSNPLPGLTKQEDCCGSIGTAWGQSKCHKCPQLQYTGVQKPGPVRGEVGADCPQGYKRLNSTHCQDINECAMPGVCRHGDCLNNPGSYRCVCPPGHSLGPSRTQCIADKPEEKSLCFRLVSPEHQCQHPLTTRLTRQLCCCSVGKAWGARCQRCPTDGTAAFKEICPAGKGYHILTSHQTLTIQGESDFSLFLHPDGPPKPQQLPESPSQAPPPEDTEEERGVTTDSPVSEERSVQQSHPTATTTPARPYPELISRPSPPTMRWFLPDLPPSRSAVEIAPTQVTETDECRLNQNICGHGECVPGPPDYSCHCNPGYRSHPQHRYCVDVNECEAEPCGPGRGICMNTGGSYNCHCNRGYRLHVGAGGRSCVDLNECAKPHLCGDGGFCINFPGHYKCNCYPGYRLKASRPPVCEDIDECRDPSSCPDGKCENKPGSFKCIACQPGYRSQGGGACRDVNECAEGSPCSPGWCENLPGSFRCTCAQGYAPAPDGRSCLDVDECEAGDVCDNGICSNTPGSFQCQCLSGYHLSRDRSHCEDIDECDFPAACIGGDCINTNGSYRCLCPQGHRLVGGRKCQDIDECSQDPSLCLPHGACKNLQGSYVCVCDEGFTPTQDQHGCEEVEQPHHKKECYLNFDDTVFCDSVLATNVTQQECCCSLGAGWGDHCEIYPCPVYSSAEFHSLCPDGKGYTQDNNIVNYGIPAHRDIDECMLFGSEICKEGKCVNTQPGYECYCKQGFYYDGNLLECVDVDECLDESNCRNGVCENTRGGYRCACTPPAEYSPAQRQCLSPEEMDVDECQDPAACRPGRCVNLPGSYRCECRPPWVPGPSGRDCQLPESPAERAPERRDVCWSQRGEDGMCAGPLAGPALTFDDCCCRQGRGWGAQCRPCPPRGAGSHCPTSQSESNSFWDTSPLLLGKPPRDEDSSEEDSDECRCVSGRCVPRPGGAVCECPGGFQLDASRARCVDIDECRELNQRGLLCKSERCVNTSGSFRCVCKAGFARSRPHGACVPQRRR
T1 sequence (P01137 30-390 limits assumed, chain 2 of 2): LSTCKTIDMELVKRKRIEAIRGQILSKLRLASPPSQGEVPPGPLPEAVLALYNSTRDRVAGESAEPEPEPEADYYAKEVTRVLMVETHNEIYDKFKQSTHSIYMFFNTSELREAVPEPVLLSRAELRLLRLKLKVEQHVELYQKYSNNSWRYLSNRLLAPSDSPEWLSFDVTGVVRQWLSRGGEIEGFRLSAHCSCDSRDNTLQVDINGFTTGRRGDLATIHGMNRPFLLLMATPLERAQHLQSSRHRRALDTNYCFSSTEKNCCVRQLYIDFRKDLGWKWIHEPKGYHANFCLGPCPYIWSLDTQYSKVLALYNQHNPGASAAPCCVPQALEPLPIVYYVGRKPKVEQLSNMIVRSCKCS
T3 sequence (Q14766 347-1721 limits assumed, chain 1 of 2): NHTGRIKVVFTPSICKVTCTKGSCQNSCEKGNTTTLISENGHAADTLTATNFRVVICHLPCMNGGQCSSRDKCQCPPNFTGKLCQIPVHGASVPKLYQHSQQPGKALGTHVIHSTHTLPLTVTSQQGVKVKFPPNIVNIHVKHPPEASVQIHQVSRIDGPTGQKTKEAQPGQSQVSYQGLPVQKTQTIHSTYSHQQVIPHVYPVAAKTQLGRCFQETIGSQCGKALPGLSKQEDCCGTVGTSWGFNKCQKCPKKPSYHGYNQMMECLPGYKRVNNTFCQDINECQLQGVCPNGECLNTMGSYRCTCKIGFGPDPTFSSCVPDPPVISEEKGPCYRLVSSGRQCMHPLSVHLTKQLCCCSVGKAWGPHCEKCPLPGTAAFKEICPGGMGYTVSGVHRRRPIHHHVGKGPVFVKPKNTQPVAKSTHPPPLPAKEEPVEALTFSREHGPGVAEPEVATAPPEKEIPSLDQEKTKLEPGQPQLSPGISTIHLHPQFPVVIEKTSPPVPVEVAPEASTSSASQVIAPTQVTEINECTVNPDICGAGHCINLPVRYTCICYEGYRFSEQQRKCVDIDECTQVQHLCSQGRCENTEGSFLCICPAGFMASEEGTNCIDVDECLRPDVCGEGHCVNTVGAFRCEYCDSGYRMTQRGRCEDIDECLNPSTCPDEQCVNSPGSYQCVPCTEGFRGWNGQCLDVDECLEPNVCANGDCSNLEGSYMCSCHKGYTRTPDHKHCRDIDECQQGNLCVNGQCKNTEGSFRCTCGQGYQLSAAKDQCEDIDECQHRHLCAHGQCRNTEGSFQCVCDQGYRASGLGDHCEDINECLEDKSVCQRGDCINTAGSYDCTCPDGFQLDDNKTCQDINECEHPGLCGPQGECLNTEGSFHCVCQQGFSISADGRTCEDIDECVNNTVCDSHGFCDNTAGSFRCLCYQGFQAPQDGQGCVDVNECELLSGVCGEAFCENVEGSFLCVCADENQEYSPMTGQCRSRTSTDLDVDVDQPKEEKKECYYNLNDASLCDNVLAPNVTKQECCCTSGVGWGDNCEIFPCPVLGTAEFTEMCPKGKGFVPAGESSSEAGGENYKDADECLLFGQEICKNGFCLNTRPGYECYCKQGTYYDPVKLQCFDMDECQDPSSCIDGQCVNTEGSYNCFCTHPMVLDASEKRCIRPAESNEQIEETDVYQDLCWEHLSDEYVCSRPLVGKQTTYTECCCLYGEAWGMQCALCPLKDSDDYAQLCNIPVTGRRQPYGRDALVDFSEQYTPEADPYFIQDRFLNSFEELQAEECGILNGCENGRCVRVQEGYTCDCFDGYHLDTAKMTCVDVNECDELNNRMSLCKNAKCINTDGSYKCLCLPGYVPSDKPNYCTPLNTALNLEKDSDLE
T3 sequence (P01137 30-390 limits assumed, chain 2 of 2): as the sequence (P01137 30-390 limits assumed, chain 2 of 2) above
T2 sequence (Q14392 18-627 limits assumed, chain 1 of 2): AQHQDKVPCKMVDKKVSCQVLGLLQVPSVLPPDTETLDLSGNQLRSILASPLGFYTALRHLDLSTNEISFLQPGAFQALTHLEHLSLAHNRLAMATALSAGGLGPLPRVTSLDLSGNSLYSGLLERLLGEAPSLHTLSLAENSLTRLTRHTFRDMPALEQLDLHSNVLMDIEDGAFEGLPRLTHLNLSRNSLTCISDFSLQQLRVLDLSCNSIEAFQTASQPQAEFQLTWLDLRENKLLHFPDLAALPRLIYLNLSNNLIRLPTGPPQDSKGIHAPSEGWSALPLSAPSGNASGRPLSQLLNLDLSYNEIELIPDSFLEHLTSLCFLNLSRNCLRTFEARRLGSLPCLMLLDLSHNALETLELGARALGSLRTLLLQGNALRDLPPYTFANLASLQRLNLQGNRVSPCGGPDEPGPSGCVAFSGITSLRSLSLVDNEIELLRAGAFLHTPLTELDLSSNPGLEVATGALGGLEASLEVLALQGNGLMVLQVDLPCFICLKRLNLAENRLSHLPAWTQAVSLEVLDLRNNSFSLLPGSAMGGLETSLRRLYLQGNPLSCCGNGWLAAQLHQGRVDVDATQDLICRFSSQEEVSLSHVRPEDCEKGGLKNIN
T2 sequence (P01137 30-390 limits assumed, chain 2 of 2): as the sequence (P01137 30-390 limits assumed, chain 2 of 2) above
T5 sequence (Q8CG19 339-1712): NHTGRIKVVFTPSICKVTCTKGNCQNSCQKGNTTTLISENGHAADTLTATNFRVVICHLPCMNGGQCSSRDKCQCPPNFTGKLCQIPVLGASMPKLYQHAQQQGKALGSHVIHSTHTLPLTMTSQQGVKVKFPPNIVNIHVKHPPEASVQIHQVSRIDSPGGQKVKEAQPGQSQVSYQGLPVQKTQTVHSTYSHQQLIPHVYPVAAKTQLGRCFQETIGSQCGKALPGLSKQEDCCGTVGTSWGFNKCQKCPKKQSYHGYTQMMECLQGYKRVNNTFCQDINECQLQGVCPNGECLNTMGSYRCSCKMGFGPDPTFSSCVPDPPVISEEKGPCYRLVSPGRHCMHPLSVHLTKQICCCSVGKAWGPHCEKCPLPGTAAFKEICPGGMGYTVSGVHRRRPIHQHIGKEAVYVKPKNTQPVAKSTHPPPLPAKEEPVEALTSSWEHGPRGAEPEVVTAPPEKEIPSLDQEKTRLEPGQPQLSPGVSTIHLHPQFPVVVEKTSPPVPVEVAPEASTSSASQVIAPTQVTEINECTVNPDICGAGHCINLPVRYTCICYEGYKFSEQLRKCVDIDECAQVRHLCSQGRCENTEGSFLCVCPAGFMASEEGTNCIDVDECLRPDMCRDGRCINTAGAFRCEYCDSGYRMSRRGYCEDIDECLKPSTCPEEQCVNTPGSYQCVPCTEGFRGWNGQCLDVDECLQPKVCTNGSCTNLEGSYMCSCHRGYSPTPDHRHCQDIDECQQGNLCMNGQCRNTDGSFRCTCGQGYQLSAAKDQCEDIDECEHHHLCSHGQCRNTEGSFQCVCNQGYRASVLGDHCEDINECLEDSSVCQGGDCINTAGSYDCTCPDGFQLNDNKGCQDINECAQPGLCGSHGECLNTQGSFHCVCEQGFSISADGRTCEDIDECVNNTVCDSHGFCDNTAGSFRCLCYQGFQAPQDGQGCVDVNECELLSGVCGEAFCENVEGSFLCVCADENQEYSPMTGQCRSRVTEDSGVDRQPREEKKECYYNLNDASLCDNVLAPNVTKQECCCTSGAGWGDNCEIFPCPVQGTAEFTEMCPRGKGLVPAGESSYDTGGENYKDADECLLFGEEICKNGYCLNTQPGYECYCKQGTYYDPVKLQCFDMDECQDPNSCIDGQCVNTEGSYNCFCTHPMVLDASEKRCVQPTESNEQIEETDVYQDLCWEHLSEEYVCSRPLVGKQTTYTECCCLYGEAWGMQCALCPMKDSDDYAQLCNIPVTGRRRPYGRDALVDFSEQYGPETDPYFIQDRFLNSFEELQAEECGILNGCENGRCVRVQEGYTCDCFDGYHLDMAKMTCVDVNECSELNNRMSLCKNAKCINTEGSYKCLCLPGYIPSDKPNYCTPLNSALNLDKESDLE

B1: Ab46 Fab (Fab, V domains shown)
VH: EVQLLESGGGLVQPGGSLRLSCAASGFTFADYAMTWVRQAPGKGLEWVSAISGSGAATYFADSVKGRFTISRDNSKNTLYLQMNSLRAEDTAVYYCARVSSGHWDYDYWGQGTLVTVSS
VL: DIQLTQSPSSLSASVGDRVTITCRASQSISSYLNWYQQKPGKAPKLLIYAASGLESGVPSRFSGSGSGTDFTLTISSLQPEDFATYYCQQTYGVPLTFGGGTKVEIK
notes: Fab fragment
[1]
  koff: 0.000438 s⁻¹
  kon: 619000 M⁻¹ s⁻¹
[2]
  koff: 0.00029 s⁻¹
  kon: 703000 M⁻¹ s⁻¹
[3]
  koff: 4.98e-05 s⁻¹
  kon: 703000 M⁻¹ s⁻¹
[4]
  Fold difference: 72 fold
[5]
  Fold difference: 91 fold
[6]
  Fold difference: 53 fold
[7]
  Fold difference: 123 fold
[8]
  Fold difference: 134 fold
[9]
  Fold difference: 95 fold
